B1: HPV30-E6, P36809 (peptide)
chain: RHTTSTETAV
B2: HPV35-E6, P27228 (peptide)
chain: SKPTRRETEV

The binders below were run against T1, USH1C_2, Q9Y6N9 (assay: holdup assay). Settings: plain residues with an end cap or a label only (N-terminal biotin on a linker: ttds).
T1 sequence (Q9Y6N9 206-303, limits assumed, looked up): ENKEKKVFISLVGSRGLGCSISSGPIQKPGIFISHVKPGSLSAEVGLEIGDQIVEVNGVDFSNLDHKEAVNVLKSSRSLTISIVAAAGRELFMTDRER
Set-up: key: below the threshold = too weak to quantify, mostly under pKd 3.1 to 4

| Binder | pKd |
| --- | --- |
| B1 | below the threshold |

Each binder was assayed against T2, PDZD4, Q76G19 (assay: holdup assay). Settings: plain residues with an end cap or a label only (N-terminal biotin on a linker: ttds).
T2 sequence (Q76G19 125-224, limits assumed, looked up): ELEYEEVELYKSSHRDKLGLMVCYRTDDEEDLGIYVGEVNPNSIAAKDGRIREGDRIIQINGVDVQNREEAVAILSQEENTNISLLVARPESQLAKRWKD
Set-up: key: below the threshold = too weak to quantify, mostly under pKd 3.1 to 4

| Binder | pKd |
| --- | --- |
| B1 | below the threshold |
| B2 | 3.55 |

The binders below were run against T3, USH1C_1, Q9Y6N9 (assay: holdup assay). Settings: plain residues with an end cap or a label only (N-terminal biotin on a linker: ttds).
T3 sequence (Q9Y6N9 82-179, limits assumed, looked up): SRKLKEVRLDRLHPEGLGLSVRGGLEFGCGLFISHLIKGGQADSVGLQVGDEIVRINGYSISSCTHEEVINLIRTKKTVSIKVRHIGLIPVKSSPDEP
Set-up: key: below the threshold = too weak to quantify, mostly under pKd 3.1 to 4

| Binder | pKd |
| --- | --- |
| B1 | below the threshold |
| B2 | below the threshold |

These binders were tested against T4, GRIP1_1, Q9Y3R0 (assay: holdup assay). Settings: plain residues with an end cap or a label only (N-terminal biotin on a linker: ttds).
T4 sequence (Q9Y3R0 48-146, limits assumed, looked up): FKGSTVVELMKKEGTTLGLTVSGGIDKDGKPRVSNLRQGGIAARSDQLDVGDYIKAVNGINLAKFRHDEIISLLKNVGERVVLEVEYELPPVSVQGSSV
Set-up: key: below the threshold = too weak to quantify, mostly under pKd 3.1 to 4

| Binder | pKd |
| --- | --- |
| B1 | 4.59 |
| B2 | below the threshold |

The binders below were run against RIMS1, Q86UR5 (assay: holdup assay). Settings: plain residues with an end cap or a label only (N-terminal biotin on a linker: ttds).
Set-up: key: below the threshold = too weak to quantify, mostly under pKd 3.1 to 4

Sequence of RIMS1, Q86UR5 (Q86UR5 584-692): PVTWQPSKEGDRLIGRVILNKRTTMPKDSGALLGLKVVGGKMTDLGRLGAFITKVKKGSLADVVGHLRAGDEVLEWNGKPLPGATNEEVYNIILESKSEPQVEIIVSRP

| Binder | pKd |
| --- | --- |
| B1 | below the threshold |
| B2 | below the threshold |

What follows are binders tested against T5, PTPN4, P29074 (assay: holdup assay). Settings: plain residues with an end cap or a label only (N-terminal biotin on a linker: ttds).
T5 sequence (P29074 512-599, limits assumed, looked up): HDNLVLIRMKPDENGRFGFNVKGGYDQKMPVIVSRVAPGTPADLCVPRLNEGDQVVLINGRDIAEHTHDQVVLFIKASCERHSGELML
Set-up: key: below the threshold = too weak to quantify, mostly under pKd 3.1 to 4

| Binder | pKd |
| --- | --- |
| B1 | 4.72 |
| B2 | 4.03 |

These binders were tested against IL16_2, Q14005 (assay: holdup assay). Settings: plain residues with an end cap or a label only (N-terminal biotin on a linker: ttds).
Set-up: key: below the threshold = too weak to quantify, mostly under pKd 3.1 to 4

Sequence of IL16_2, Q14005 (Q14005 350-450): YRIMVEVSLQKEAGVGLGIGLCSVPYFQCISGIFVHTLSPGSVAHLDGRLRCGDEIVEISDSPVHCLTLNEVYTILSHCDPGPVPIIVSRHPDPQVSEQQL

| Binder | pKd |
| --- | --- |
| B1 | below the threshold |
| B2 | 3.57 |

What follows are binders tested against PDLIM4, P50479 (assay: holdup assay). Settings: plain residues with an end cap or a label only (N-terminal biotin on a linker: ttds).
Set-up: key: below the threshold = too weak to quantify, mostly under pKd 3.1 to 4

Sequence of PDLIM4, P50479 (P50479 1-83): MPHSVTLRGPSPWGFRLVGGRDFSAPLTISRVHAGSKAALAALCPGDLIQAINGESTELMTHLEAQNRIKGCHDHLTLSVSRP

| Binder | pKd |
| --- | --- |
| B1 | below the threshold |
| B2 | 4.16 |

What follows are binders tested against T6, PTPN13_5, Q12923 (assay: holdup assay). Settings: plain residues with an end cap or a label only (N-terminal biotin on a linker: ttds).
T6 sequence (Q12923 1877-1975, limits assumed, looked up): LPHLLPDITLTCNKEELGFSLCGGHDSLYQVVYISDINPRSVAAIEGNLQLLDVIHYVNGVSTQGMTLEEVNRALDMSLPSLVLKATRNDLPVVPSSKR
Set-up: key: below the threshold = too weak to quantify, mostly under pKd 3.1 to 4

| Binder | pKd |
| --- | --- |
| B1 | below the threshold |
| B2 | below the threshold |

What follows are binders tested against T7, PARD6B, Q9BYG5 (assay: holdup assay). Settings: plain residues with an end cap or a label only (N-terminal biotin on a linker: ttds).
T7 sequence (Q9BYG5 152-260, limits assumed, looked up): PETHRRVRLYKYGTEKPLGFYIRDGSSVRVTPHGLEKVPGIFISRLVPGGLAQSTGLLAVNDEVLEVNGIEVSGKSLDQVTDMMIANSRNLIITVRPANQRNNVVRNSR
Set-up: key: below the threshold = too weak to quantify, mostly under pKd 3.1 to 4

| Binder | pKd |
| --- | --- |
| B1 | below the threshold |
| B2 | below the threshold |

These binders were tested against T8, CNKSR1, Q969H4 (assay: holdup assay). Settings: plain residues with an end cap or a label only (N-terminal biotin on a linker: ttds).
T8 sequence (Q969H4 191-295, limits assumed, looked up): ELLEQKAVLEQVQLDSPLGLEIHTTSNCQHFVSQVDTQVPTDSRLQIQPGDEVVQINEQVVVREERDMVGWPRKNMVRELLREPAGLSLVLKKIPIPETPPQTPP
Set-up: key: below the threshold = too weak to quantify, mostly under pKd 3.1 to 4

| Binder | pKd |
| --- | --- |
| B1 | below the threshold |

Each binder was assayed against T9, PDZD11, Q5EBL8 (assay: holdup assay). Settings: plain residues with an end cap or a label only (N-terminal biotin on a linker: ttds).
T9 sequence (Q5EBL8 42-139, limits assumed, looked up): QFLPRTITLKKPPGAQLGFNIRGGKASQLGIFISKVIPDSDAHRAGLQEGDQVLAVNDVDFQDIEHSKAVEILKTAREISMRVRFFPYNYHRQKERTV
Set-up: key: below the threshold = too weak to quantify, mostly under pKd 3.1 to 4

| Binder | pKd |
| --- | --- |
| B1 | below the threshold |
| B2 | below the threshold |

The binders below were run against T10, USH1C_3, Q9Y6N9 (assay: holdup assay). Settings: plain residues with an end cap or a label only (N-terminal biotin on a linker: ttds).
T10 sequence (Q9Y6N9 447-547, limits assumed, looked up): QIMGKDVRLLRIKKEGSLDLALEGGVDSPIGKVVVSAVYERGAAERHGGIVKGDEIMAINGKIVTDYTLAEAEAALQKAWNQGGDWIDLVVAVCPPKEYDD
Set-up: key: below the threshold = too weak to quantify, mostly under pKd 3.1 to 4

| Binder | pKd |
| --- | --- |
| B1 | below the threshold |
| B2 | below the threshold |

What follows are binders tested against PARD3B_3, Q8TEW8 (assay: holdup assay). Settings: plain residues with an end cap or a label only (N-terminal biotin on a linker: ttds).
Set-up: key: below the threshold = too weak to quantify, mostly under pKd 3.1 to 4

Sequence of PARD3B_3, Q8TEW8 (Q8TEW8 490-594): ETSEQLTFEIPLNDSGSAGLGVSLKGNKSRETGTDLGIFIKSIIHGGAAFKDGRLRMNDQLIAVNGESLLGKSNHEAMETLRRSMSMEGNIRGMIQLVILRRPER

| Binder | pKd |
| --- | --- |
| B1 | below the threshold |
| B2 | 3.73 |

These binders were tested against RIMS2, Q9UQ26 (assay: holdup assay). Settings: plain residues with an end cap or a label only (N-terminal biotin on a linker: ttds).
Set-up: key: below the threshold = too weak to quantify, mostly under pKd 3.1 to 4

Sequence of RIMS2, Q9UQ26 (Q9UQ26 637-758): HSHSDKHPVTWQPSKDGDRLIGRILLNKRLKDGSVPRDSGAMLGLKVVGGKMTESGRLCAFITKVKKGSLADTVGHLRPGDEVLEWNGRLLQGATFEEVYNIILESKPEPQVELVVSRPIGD

| Binder | pKd |
| --- | --- |
| B1 | below the threshold |
| B2 | below the threshold |

These binders were tested against T11, PDZD2_3, O15018 (assay: holdup assay). Settings: plain residues with an end cap or a label only (N-terminal biotin on a linker: ttds).
T11 sequence (O15018 581-682, limits assumed, looked up): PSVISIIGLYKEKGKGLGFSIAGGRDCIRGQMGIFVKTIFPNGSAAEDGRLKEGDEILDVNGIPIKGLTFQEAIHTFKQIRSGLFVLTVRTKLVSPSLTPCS
Set-up: key: below the threshold = too weak to quantify, mostly under pKd 3.1 to 4

| Binder | pKd |
| --- | --- |
| B1 | below the threshold |
| B2 | below the threshold |

The binders below were run against MAGI1_6, Q96QZ7 (assay: holdup assay). Settings: plain residues with an end cap or a label only (N-terminal biotin on a linker: ttds).
Set-up: key: below the threshold = too weak to quantify, mostly under pKd 3.1 to 4

Sequence of MAGI1_6, Q96QZ7 (Q96QZ7 1146-1238): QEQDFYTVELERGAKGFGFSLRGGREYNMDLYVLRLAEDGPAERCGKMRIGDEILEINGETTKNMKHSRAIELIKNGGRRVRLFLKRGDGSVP

| Binder | pKd |
| --- | --- |
| B1 | 4.73 |
| B2 | 3.66 |

These binders were tested against PREX1_1, Q8TCU6 (assay: holdup assay). Settings: plain residues with an end cap or a label only (N-terminal biotin on a linker: ttds).
Set-up: key: below the threshold = too weak to quantify, mostly under pKd 3.1 to 4

Sequence of PREX1_1, Q8TCU6 (Q8TCU6 608-718): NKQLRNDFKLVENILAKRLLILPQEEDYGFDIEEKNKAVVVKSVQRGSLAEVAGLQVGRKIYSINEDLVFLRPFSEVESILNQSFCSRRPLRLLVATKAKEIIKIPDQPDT

| Binder | pKd |
| --- | --- |
| B1 | below the threshold |
| B2 | below the threshold |

Each binder was assayed against T12, NHERF3_2, Q5T2W1 (assay: holdup assay). Settings: plain residues with an end cap or a label only (N-terminal biotin on a linker: ttds).
T12 sequence (Q5T2W1 129-225, limits assumed, looked up): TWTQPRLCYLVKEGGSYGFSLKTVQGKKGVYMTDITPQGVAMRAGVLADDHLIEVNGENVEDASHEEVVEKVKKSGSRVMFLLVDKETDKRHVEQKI
Set-up: key: below the threshold = too weak to quantify, mostly under pKd 3.1 to 4

| Binder | pKd |
| --- | --- |
| B1 | below the threshold |
| B2 | below the threshold |

What follows are binders tested against T13, SYNPO2L, Q9H987 (assay: holdup assay). Settings: plain residues with an end cap or a label only (N-terminal biotin on a linker: ttds).
T13 sequence (Q9H987 1-98, limits assumed, looked up): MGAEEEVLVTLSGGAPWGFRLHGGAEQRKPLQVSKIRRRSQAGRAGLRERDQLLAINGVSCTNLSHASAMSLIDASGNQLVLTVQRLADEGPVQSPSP
Set-up: key: below the threshold = too weak to quantify, mostly under pKd 3.1 to 4

| Binder | pKd |
| --- | --- |
| B1 | below the threshold |
| B2 | below the threshold |

These binders were tested against T14, PDZD7_2, Q9H5P4 (assay: holdup assay). Settings: plain residues with an end cap or a label only (N-terminal biotin on a linker: ttds).
T14 sequence (Q9H5P4 205-303, limits assumed, looked up): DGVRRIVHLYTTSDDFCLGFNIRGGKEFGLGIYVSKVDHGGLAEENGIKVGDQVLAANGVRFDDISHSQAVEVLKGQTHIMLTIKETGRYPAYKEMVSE
Set-up: key: below the threshold = too weak to quantify, mostly under pKd 3.1 to 4

| Binder | pKd |
| --- | --- |
| B1 | below the threshold |
| B2 | below the threshold |

What follows are binders tested against T15, SIPA1L3, O60292 (assay: holdup assay). Settings: plain residues with an end cap or a label only (N-terminal biotin on a linker: ttds).
T15 sequence (O60292 961-1052, limits assumed, looked up): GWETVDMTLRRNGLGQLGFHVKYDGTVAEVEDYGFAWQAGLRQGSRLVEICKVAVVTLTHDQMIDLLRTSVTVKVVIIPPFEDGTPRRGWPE
Set-up: key: below the threshold = too weak to quantify, mostly under pKd 3.1 to 4

| Binder | pKd |
| --- | --- |
| B1 | below the threshold |
| B2 | below the threshold |

— paper PMC9482650, “Quantitative fragmentomics allow affinity mapping of interactomes” (Nature Communications, 2022)
